# How the values were obtained:
# SHP2-C SH2 = test: SH2 binding enrichment of the phosphorylated peptide, bacterial display (enrichment ratio); higher = better substrate or ligand; peptides without Tyr show the background
# c-Src SH2 = test: as above
# Grb2 SH2 = Grb2 SH2 (UniProt P62993); test: as above
# Fer (mouse) = test: phosphorylation enrichment, bacterial display (enrichment ratio); higher = better substrate or ligand; peptides without Tyr show the background
# FGFR3 = FGFR3 (UniProt P22607); test: as above
# c-Abl (mouse) = test: as above
# Fyn = Fyn (UniProt P06241); test: as above
# Chain of Fyn (P06241 whole entry, looked up): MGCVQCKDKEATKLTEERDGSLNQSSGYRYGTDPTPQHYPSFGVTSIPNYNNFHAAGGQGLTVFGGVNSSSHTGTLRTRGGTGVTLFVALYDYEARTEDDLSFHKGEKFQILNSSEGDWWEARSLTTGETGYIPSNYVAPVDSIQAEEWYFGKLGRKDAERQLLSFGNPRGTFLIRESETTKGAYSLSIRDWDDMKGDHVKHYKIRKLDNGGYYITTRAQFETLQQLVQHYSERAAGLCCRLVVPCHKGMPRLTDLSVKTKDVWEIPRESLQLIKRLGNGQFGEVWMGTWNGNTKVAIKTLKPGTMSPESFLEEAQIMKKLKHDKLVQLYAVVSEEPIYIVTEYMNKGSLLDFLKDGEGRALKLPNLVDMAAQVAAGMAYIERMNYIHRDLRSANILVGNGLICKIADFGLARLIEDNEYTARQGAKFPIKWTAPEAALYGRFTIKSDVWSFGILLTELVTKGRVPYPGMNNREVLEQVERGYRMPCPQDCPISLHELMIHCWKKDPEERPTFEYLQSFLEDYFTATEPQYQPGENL
# Hck = Hck (UniProt P08631); test: as above
# Chain of Hck (P08631 whole entry, looked up): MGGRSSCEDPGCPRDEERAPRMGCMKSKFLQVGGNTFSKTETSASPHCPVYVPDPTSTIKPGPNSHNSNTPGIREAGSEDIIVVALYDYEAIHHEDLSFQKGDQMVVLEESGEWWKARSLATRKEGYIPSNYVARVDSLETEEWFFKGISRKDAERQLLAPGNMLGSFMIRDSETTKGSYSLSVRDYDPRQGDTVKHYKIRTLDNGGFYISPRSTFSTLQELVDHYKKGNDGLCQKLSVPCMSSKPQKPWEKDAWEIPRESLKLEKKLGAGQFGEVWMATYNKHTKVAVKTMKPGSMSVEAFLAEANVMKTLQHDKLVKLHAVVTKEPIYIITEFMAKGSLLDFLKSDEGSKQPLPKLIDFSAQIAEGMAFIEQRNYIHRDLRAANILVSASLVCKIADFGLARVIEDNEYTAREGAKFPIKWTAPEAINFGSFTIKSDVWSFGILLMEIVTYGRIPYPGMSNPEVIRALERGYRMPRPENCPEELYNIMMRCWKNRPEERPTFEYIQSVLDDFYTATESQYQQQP
# c-Src = test: as above
# EPHB2 = EPHB2 (UniProt P29323); test: as above
# EPHB1 = EPHB1 (UniProt P54762); test: as above
# Jak2 = Jak2 (UniProt O60674); test: as above
# Chain of Jak2 (O60674 whole entry, looked up): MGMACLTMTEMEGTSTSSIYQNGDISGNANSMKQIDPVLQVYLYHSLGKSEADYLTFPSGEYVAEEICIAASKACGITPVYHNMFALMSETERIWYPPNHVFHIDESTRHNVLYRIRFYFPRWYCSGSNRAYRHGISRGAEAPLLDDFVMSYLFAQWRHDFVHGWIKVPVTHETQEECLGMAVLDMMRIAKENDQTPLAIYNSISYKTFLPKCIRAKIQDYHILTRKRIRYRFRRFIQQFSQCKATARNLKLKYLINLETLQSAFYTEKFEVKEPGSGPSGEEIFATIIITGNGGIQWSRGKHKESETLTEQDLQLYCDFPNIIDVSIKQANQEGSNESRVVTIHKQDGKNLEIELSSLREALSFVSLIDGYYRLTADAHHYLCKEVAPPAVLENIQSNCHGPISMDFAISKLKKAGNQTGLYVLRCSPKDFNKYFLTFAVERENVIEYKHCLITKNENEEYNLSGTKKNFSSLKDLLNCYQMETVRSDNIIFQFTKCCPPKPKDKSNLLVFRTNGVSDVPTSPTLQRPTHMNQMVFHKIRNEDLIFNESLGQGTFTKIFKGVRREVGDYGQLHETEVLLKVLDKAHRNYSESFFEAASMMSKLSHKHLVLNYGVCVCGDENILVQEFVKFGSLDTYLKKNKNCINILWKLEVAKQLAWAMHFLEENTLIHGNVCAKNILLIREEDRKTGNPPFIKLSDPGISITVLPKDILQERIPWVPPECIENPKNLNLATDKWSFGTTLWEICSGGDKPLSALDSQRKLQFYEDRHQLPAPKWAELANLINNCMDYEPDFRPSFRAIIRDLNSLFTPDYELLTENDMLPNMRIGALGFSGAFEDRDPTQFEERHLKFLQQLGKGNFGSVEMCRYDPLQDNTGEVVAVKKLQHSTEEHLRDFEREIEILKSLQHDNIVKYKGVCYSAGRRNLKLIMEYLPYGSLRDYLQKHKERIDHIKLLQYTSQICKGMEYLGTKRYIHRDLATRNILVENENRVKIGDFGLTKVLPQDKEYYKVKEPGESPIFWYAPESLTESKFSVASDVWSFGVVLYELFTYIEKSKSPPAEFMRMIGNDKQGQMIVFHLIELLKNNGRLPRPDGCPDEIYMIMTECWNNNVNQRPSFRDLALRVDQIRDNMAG
# FGFR1 = FGFR1 (UniProt P11362); test: as above
# Chain of FGFR1 (P11362 whole entry, looked up): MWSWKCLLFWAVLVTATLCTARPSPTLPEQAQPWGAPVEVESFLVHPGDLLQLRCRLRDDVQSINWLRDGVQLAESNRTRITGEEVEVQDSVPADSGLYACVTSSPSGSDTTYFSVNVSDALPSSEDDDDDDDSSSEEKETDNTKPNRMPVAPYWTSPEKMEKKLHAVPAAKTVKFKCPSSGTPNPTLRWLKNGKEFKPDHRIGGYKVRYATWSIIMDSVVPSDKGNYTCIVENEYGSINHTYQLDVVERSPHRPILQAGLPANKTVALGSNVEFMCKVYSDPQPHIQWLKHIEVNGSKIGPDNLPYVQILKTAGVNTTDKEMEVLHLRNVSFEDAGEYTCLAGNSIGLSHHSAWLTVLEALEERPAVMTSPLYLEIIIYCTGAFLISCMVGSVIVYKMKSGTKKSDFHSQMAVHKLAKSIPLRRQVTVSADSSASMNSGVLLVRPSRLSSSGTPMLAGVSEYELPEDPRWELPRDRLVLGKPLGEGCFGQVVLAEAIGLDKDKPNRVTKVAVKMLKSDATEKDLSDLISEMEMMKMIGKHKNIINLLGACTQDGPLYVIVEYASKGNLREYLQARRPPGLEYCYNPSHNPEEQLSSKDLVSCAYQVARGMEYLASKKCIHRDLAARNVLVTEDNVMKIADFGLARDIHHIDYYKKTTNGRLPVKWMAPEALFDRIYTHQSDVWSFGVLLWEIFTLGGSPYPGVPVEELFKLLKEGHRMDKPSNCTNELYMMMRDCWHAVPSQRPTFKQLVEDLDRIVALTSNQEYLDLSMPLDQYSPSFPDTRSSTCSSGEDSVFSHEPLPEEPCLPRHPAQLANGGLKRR
# MERTK = MERTK (UniProt Q12866); test: as above
# Chain of MERTK (Q12866 whole entry, looked up): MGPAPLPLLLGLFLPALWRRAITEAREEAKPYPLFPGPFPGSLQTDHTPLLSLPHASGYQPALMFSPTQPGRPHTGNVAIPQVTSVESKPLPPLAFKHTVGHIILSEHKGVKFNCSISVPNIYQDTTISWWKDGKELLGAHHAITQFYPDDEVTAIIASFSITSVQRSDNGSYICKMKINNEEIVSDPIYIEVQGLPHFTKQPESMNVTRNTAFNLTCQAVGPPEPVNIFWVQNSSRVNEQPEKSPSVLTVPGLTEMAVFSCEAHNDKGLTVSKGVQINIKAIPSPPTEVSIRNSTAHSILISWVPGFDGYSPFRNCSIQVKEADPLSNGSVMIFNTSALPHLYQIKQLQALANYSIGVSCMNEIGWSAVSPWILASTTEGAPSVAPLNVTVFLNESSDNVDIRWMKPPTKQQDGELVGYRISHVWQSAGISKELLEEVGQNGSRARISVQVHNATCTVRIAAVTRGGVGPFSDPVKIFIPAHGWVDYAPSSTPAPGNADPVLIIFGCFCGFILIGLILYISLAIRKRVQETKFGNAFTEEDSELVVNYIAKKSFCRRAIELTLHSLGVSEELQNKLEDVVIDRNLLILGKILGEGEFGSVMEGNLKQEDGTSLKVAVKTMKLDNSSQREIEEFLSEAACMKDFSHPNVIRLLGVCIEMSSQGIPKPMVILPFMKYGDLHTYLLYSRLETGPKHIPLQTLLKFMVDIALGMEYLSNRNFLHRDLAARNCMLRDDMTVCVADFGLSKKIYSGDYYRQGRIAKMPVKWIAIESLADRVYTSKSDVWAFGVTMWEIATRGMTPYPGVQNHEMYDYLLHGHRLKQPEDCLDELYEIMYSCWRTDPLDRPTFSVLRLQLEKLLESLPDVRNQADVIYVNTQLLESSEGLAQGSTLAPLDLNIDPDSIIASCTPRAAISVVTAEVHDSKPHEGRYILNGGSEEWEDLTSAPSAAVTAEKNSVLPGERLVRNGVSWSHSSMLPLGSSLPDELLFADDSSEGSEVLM
# Fes = Fes (UniProt P07332); test: as above
# Chain of Fes (P07332 whole entry, looked up): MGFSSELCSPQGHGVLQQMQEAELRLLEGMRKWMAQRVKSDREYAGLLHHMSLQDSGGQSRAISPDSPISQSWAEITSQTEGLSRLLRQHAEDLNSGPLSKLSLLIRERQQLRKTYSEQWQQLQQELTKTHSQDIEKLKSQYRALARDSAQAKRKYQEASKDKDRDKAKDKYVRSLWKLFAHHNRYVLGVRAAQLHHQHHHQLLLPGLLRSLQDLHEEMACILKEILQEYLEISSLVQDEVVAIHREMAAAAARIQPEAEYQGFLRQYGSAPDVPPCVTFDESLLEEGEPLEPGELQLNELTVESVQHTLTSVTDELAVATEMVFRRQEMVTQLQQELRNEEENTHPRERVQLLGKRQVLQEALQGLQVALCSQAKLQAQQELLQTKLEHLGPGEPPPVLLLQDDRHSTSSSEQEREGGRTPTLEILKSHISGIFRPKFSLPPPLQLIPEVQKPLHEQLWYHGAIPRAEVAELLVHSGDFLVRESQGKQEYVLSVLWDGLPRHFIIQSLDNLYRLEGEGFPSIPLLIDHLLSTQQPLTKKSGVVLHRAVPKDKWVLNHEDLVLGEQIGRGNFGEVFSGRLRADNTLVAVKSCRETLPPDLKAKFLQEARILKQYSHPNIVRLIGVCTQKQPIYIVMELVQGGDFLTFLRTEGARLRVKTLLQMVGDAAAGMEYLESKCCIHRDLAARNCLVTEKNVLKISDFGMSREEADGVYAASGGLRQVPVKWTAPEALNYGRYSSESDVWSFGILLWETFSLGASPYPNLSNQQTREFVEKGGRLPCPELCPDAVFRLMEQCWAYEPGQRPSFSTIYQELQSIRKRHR
# AncSZ = test: as above
# 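Throughout, for SH2 binding enrichment of the phosphorylated peptide, bacterial display: peptide library displayed on the E. coli surface as eCPX fusions, selected cells deep-sequenced, score is each peptide's frequency after selection divided by its frequency in the input.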
# 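Throughout, for phosphorylation enrichment, bacterial display: 11-residue human phosphosite peptides and single-mutation variants displayed on the E. coli surface, counted by deep sequencing, each peptide's frequency after selection divided by its frequency in the unselected input library; frequency after pTyr selection over input frequency; kinase dosed for 20-30% of maximal phosphorylation in three min.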
# Chain of Grb2 SH2 (P62993 whole entry, looked up): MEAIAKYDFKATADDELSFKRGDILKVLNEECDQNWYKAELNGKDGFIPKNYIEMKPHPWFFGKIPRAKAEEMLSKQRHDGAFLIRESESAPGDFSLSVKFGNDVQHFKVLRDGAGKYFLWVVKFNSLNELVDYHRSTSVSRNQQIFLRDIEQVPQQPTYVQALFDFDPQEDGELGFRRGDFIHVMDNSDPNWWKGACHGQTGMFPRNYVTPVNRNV
Sequence,SH2 binding enrichment (SHP2-C SH2),SH2 binding enrichment (c-Src SH2),SH2 binding enrichment (Grb2 SH2),phosphorylation enrichment (Fer (mouse)),phosphorylation enrichment (FGFR3),phosphorylation enrichment (c-Abl (mouse)),phosphorylation enrichment (Fyn),phosphorylation enrichment (Hck),phosphorylation enrichment (c-Src),phosphorylation enrichment (EPHB2),phosphorylation enrichment (EPHB1),phosphorylation enrichment (Jak2),phosphorylation enrichment (FGFR1),phosphorylation enrichment (MERTK),phosphorylation enrichment (Fes),phosphorylation enrichment (AncSZ)
FQLPFYNMVPS [BMPR1A_Y458_YF],0.652,1.97,0.952,1.45,0.936,0.582,1.05,1.07,1.06,0.773,0.65,0.666,1.21,2.69,0.811,0.788
FQRLRYIKQLG [SAMHD1_Y146],0.679,0.479,0.813,0.42,0.509,0.617,0.399,0.454,0.473,0.592,0.483,0.652,0.42,0.472,0.898,0.8
FRGFSYDDIPD [TMEM230_Y112_YF],0.595,7.24,0.882,0.405,0.737,0.895,0.438,0.609,0.485,0.71,0.739,1.39,0.474,0.565,1.44,1.35
FRNSLYAPDFS [FAM92A_Y226_YF],0.736,0.511,0.674,0.911,0.743,0.563,1.02,1.23,1.25,1.35,2.04,0.812,0.891,8.67,0.899,0.755
FRPPFYHRDCM [HGD_Y334_N337D_YF],1.06,1.02,1.03,0.577,0.724,0.735,0.459,0.507,0.477,0.659,0.611,0.942,0.558,0.471,1.1,0.895
FSAPNYCYRCG [PPP2CA_Y265],0.933,0.762,1.1,0.327,0.45,0.452,0.458,0.414,0.382,0.455,0.498,0.501,0.446,0.423,0.564,0.656
FSCLPCGRLAY [SLC52A2_Y305_Y305C],1.34,1.54,1.46,0.351,0.54,0.584,0.425,0.431,0.45,0.485,0.431,0.724,0.481,0.688,0.772,0.832
FSKDIYKRVTG [PANK2_Y405_N404I_YF],0.598,0.41,0.763,0.355,0.413,0.529,0.444,0.423,0.398,0.382,0.218,0.407,0.431,0.334,0.58,0.516
FSQQTYFRVSN [ABCD1_Y180_YF],1.16,1.09,0.887,0.415,1.19,0.625,0.435,0.749,0.931,0.564,0.654,3.23,1.23,0.41,0.723,0.902
FTYDPYSEEDP [IL2RB_Y387],0.694,0.555,0.851,0.475,0.822,0.654,1.28,1.01,1.46,0.581,0.564,0.957,0.503,0.389,1.15,1.05
GAPATYEGDAR [CACNA1A_Y1013],0.669,0.649,0.893,0.565,0.51,0.397,0.388,0.467,0.368,0.499,0.354,0.497,0.543,0.345,0.666,0.58
GAVGHYVLAER [HFE_Y342_M339V],0.851,2.88,0.634,0.363,1.23,0.46,0.47,0.454,0.503,0.415,0.395,0.453,0.449,0.573,0.711,0.865
GDKENYGLPQP [BUB1_Y538_N534D],0.742,0.518,0.866,0.419,0.567,0.632,0.461,0.469,0.433,0.794,0.509,0.715,0.452,0.432,0.859,0.873
GEDEPYSEPYA [APBA1_Y183],0.742,0.582,0.903,0.618,0.756,0.845,0.55,0.477,0.551,0.673,0.542,1.15,0.516,0.531,1.19,1.35
GEEIKYTLWLS [OTC_Y55_M56T],0.644,0.379,0.725,0.712,0.882,0.873,0.418,0.529,0.443,0.605,0.704,1.21,0.538,0.512,1.4,1.35
GEETDYTPVWC [UROD_Y30],0.748,0.687,0.864,1.02,0.92,0.785,0.535,0.556,0.552,0.791,0.587,1.04,0.655,0.468,1.43,1.62

# Reference: the supplement of paper PMC10065799, “High-throughput profiling of sequence recognition by tyrosine kinases and SH2 domains using bacterial peptide display” (eLife, 2023)
